Like-named read-outs stand apart in the source and are kept apart here.
What was measured:
human RXFP1 receptor = target: T1, human RXFP1 receptor (Homo sapiens, UniProt Q9HBX9); test: Intracellular cAMP accumulation assay; assay type: cell-based
T1 construct: expressed in transfected cells
T1 sequence (Q9HBX9 1-757): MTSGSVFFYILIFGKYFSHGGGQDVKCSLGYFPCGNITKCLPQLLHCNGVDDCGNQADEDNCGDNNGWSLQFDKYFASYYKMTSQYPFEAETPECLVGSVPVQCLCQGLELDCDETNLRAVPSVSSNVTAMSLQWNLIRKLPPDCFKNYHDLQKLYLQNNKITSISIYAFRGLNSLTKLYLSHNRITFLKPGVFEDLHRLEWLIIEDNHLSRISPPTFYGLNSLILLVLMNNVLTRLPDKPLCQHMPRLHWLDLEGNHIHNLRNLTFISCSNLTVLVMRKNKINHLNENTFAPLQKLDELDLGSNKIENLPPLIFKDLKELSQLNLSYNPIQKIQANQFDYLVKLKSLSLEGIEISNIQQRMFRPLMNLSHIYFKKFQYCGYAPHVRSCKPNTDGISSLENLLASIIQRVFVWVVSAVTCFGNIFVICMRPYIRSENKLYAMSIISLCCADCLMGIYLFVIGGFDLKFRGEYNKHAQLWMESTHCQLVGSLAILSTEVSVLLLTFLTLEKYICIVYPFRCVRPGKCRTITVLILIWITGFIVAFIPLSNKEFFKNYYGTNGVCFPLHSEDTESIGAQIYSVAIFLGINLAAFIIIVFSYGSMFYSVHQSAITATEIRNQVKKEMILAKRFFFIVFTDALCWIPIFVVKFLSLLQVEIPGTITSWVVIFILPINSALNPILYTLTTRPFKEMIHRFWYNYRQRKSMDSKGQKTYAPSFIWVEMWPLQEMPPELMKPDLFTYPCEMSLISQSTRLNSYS

[1] = In vivo pharmacokinetic (PK) studies in rats; design: species or system Sprague-Dawley rats; settings: rat, male Sprague-Dawley rats, single SC dose 1.0 mg/kg, serum ELISA; for AUC(0-inf): read-out: Rat PK AUC Total; for level at time molar at 24 h: read-out: Rat PK C24
Summary of the method: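 Male Sprague-Dawley rats (n=3) given a single 1 mg/kg IV or SC dose of relaxin constructs in 20 mM histidine, 750 mM NaCl, pH 6.0; jugular serum sampled to 72 h. Serum relaxin by ELISA; Cmax, AUCinf, C24 and half-life from non-compartmental analysis of individual profiles.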

Compound: CC[C@H](C)[C@@H]1NC(=O)[C@H](C)NC(=O)[C@H]([C@@H](C)CC)NC(=O)[C@H](CCC(N)=O)NC(=O)[C@H](C)NC(=O)[C@H](CCCNC(=N)N)NC(=O)[C@H](C(C)C)NC(=O)[C@H](CC(C)C)NC(=O)[C@H](CCC(=O)O)NC(=O)[C@H](CCCNC(=N)N)NC(=O)CNC(=O)[C@@H](NC(=O)[C@H](CC(C)C)NC(=O)[C@H](CCCCN)NC(=O)[C@@H](NC(=O)[C@@H](NC(=O)[C@H](CCC(=O)O)NC(=O)[C@H](CCC(=O)O)NC(=O)[C@H](CCSC)NC(=O)[C@H](Cc2c[nH]c3ccccc23)NC(=O)[C@H](CO)NC(=O)[C@H](C)N)C(C)C)[C@@H](C)CC)CSSC[C@@H]2NC(=O)[C@@H](NC(=O)[C@H](CCCCN)NC(=O)[C@H](CC(N)=O)NC(=O)[C@H](C)NC(=O)[C@H](CC(C)C)NC(=O)[C@H](C)NC(=O)[C@H](CO)NC(=O)[C@H](Cc3ccc(O)cc3)NC(=O)[C@H](CC(C)C)NC(=O)[C@@H](N)Cc3ccc(/C(C)=N/OCCNC(=O)CNC(=O)[C@H](CO)NC(=O)[C@@H]4CCCN4C(=O)CNC(=O)[C@H](CO)NC(=O)[C@@H]4CCCN4C(=O)CC[C@H](NC(=O)CCCCCCCCCCCCCC(=O)O)C(=O)O)cc3)CSSC[C@H](NC(=O)CNC(=O)[C@H](C(C)C)NC(=O)[C@H](Cc3c[nH]cn3)NC2=O)C(=O)N[C@@H]([C@@H](C)O)C(=O)N[C@@H](CCCCN)C(=O)N[C@@H](CCCNC(=N)N)C(=O)N[C@@H](CO)C(=O)N[C@@H](CC(C)C)C(=O)N[C@@H](C)C(=O)N[C@@H](CCCNC(=N)N)C(=O)N[C@@H](Cc2ccccc2)C(=O)N[C@H](C(=O)O)CSSC[C@@H](C(=O)NCC(=O)N[C@@H](CCSC)C(=O)N[C@@H](CO)C(=O)N[C@H](C(=O)N[C@@H](Cc2c[nH]c3ccccc23)C(=O)N[C@@H](CO)C(=O)O)[C@@H](C)O)NC1=O [AQ1-GSPGSP-Glu^γ-C14-COOH]
- EC50 (human RXFP1 receptor): 0.29 nM
- AUC(0-inf) [1]: 1980 nM·h
- level at time molar at 24 h [1]: 5 nM

Compound: CC[C@H](C)[C@@H]1NC(=O)[C@H](C)NC(=O)[C@H]([C@@H](C)CC)NC(=O)[C@H](CCC(N)=O)NC(=O)[C@H](C)NC(=O)[C@H](CCCNC(=N)N)NC(=O)[C@H](C(C)C)NC(=O)[C@H](CC(C)C)NC(=O)[C@H](CCC(=O)O)NC(=O)[C@H](CCCNC(=N)N)NC(=O)CNC(=O)[C@@H](NC(=O)[C@H](CC(C)C)NC(=O)[C@H](CCCCN)NC(=O)[C@@H](NC(=O)[C@@H](NC(=O)[C@H](CCC(=O)O)NC(=O)[C@H](CCC(=O)O)NC(=O)[C@H](CCSC)NC(=O)[C@H](Cc2c[nH]c3ccccc23)NC(=O)[C@H](CO)NC(=O)[C@H](C)N)C(C)C)[C@@H](C)CC)CSSC[C@@H]2NC(=O)[C@@H](NC(=O)[C@H](CCCCN)NC(=O)[C@H](CC(N)=O)NC(=O)[C@H](C)NC(=O)[C@H](CC(C)C)NC(=O)[C@H](C)NC(=O)[C@H](CO)NC(=O)[C@H](Cc3ccc(O)cc3)NC(=O)[C@H](CC(C)C)NC(=O)[C@@H](N)Cc3ccc(C(C)=NOCCNC(=O)[C@H](CCCCN)NC(=O)[C@H](CCCCN)NC(=O)CC[C@H](NC(=O)CCCCCCCCCCCCCC(=O)O)C(=O)O)cc3)CSSC[C@H](NC(=O)CNC(=O)[C@H](C(C)C)NC(=O)[C@H](Cc3c[nH]cn3)NC2=O)C(=O)N[C@@H]([C@@H](C)O)C(=O)N[C@@H](CCCCN)C(=O)N[C@@H](CCCNC(=N)N)C(=O)N[C@@H](CO)C(=O)N[C@@H](CC(C)C)C(=O)N[C@@H](C)C(=O)N[C@@H](CCCNC(=N)N)C(=O)N[C@@H](Cc2ccccc2)C(=O)N[C@H](C(=O)O)CSSC[C@@H](C(=O)NCC(=O)N[C@@H](CCSC)C(=O)N[C@@H](CO)C(=O)N[C@H](C(=O)N[C@@H](Cc2c[nH]c3ccccc23)C(=O)N[C@@H](CO)C(=O)O)[C@@H](C)O)NC1=O [AQ1-KK-Glu^γ-C14-COOH]
- EC50 (human RXFP1 receptor): 0.34 nM
- AUC(0-inf) [1]: 451 nM·h
- level at time molar at 24 h [1]: 1.5 nM

Compound: CC[C@H](C)[C@@H]1NC(=O)[C@H](C)NC(=O)[C@H]([C@@H](C)CC)NC(=O)[C@H](CCC(N)=O)NC(=O)[C@H](C)NC(=O)[C@H](CCCNC(=N)N)NC(=O)[C@H](C(C)C)NC(=O)[C@H](CC(C)C)NC(=O)[C@H](CCC(=O)O)NC(=O)[C@H](CCCNC(=N)N)NC(=O)CNC(=O)[C@@H](NC(=O)[C@H](CC(C)C)NC(=O)[C@H](CCCCN)NC(=O)[C@@H](NC(=O)[C@@H](NC(=O)[C@H](CCC(=O)O)NC(=O)[C@H](CCC(=O)O)NC(=O)[C@H](CCSC)NC(=O)[C@H](Cc2c[nH]c3ccccc23)NC(=O)[C@H](CO)NC(=O)[C@H](C)N)C(C)C)[C@@H](C)CC)CSSC[C@@H]2NC(=O)[C@@H](NC(=O)[C@H](CCCCN)NC(=O)[C@H](CC(N)=O)NC(=O)[C@H](C)NC(=O)[C@H](CC(C)C)NC(=O)[C@H](C)NC(=O)[C@H](CO)NC(=O)[C@H](Cc3ccc(O)cc3)NC(=O)[C@H](CC(C)C)NC(=O)[C@@H](N)Cc3ccc(C(C)=NOCCNC(=O)[C@H](CCCCN)NC(=O)[C@H](CCCCN)NC(=O)[C@H](CCCCN)NC(=O)CNC(=O)CNC(=O)CNC(=O)CC[C@H](NC(=O)CCCCCCCCCCCCC(=O)O)C(=O)O)cc3)CSSC[C@H](NC(=O)CNC(=O)[C@H](C(C)C)NC(=O)[C@H](Cc3c[nH]cn3)NC2=O)C(=O)N[C@@H]([C@@H](C)O)C(=O)N[C@@H](CCCCN)C(=O)N[C@@H](CCCNC(=N)N)C(=O)N[C@@H](CO)C(=O)N[C@@H](CC(C)C)C(=O)N[C@@H](C)C(=O)N[C@@H](CCCNC(=N)N)C(=O)N[C@@H](Cc2ccccc2)C(=O)N[C@H](C(=O)O)CSSC[C@@H](C(=O)NCC(=O)N[C@@H](CCSC)C(=O)N[C@@H](CO)C(=O)N[C@H](C(=O)N[C@@H](Cc2c[nH]c3ccccc23)C(=O)N[C@@H](CO)C(=O)O)[C@@H](C)O)NC1=O [AQ1-KKKGGG-Glu^γ-C13-COOH]
- EC50 (human RXFP1 receptor; CHO-K1 cells stably expressing human RXFP1, 10 min at 37° C., HTRF cAMP, average, read-out: hRXFP1/CHO-K1 cAMP EC50 (nM, avg)): 0.09 nM
- AUC(0-inf) [1]: 258 nM·h
- level at time molar at 24 h [1]: 0.24 nM

Compound: CC[C@H](C)[C@@H]1NC(=O)[C@H](C)NC(=O)[C@H]([C@@H](C)CC)NC(=O)[C@H](CCC(N)=O)NC(=O)[C@H](C)NC(=O)[C@H](CCCNC(=N)N)NC(=O)[C@H](C(C)C)NC(=O)[C@H](CC(C)C)NC(=O)[C@H](CCC(=O)O)NC(=O)[C@H](CCCNC(=N)N)NC(=O)CNC(=O)[C@@H](NC(=O)[C@H](CC(C)C)NC(=O)[C@H](CCCCN)NC(=O)[C@@H](NC(=O)[C@@H](NC(=O)[C@H](CCC(=O)O)NC(=O)[C@H](CCC(=O)O)NC(=O)[C@H](CCSC)NC(=O)[C@H](Cc2c[nH]c3ccccc23)NC(=O)[C@H](CO)NC(=O)[C@H](C)N)C(C)C)[C@@H](C)CC)CSSC[C@@H]2NC(=O)[C@@H](NC(=O)[C@H](CCCCN)NC(=O)[C@H](CC(N)=O)NC(=O)[C@H](C)NC(=O)[C@H](CC(C)C)NC(=O)[C@H](C)NC(=O)[C@H](CO)NC(=O)[C@H](Cc3ccc(O)cc3)NC(=O)[C@H](CC(C)C)NC(=O)[C@@H](N)Cc3ccc(C(C)=NOCCNC(=O)[C@H](CCCCN)NC(=O)[C@H](CCCCN)NC(=O)[C@H](CCCCN)NC(=O)[C@H](CO)NC(=O)CNC(=O)CNC(=O)[C@H](CO)NC(=O)CNC(=O)CNC(=O)CC[C@H](NC(=O)CCCCCCCCCCCCC(=O)O)C(=O)O)cc3)CSSC[C@H](NC(=O)CNC(=O)[C@H](C(C)C)NC(=O)[C@H](Cc3c[nH]cn3)NC2=O)C(=O)N[C@@H]([C@@H](C)O)C(=O)N[C@@H](CCCCN)C(=O)N[C@@H](CCCNC(=N)N)C(=O)N[C@@H](CO)C(=O)N[C@@H](CC(C)C)C(=O)N[C@@H](C)C(=O)N[C@@H](CCCNC(=N)N)C(=O)N[C@@H](Cc2ccccc2)C(=O)N[C@H](C(=O)O)CSSC[C@@H](C(=O)NCC(=O)N[C@@H](CCSC)C(=O)N[C@@H](CO)C(=O)N[C@H](C(=O)N[C@@H](Cc2c[nH]c3ccccc23)C(=O)N[C@@H](CO)C(=O)O)[C@@H](C)O)NC1=O [AQ1-KKKSGGSGG-Glu^γ-C13-COOH]
- EC50 (human RXFP1 receptor): 0.14 nM
- AUC(0-inf) [1]: 264 nM·h
- level at time molar at 24 h [1]: 0.21 nM
